Key:
[1] = target: T1, ErbB2&ErbB3 co-expressing COS 7 cells (Homo sapiens, UniProt P21860); experiment: Receptor binding affinity assay (competition of bound radiolabeled ligand) on COS7 cells; conditions: for receptor binding affinity compared with neuregulin: ErbB2&ErbB3 co-expressing cells; for EC50: Table 7 (footnote defines KD), read-out: EC50, COS7 cells (ErbB2&ErbB3 co-expression)
T1 construct: expressed in transfected cells; host or cells: COS 7
Method: (§1) To study the receptor binding affinity of neuregulin and its mutations, ErbB2&ErbB3 or ErB2&ErB4 co-expressing COS 7 are used. The cells are grown to 80% confluence. In the afternoon, after the cells reach 80% confluence, the media is changed to serum free media.

[2] = target: T2, ErbB2&ErbB4 co-expressing COS 7 cells (Homo sapiens, UniProt Q15303); experiment: as above; conditions: for receptor binding affinity compared with neuregulin: ErbB2&ErbB4 co-expressing cells; for EC50: Table 7 (footnote defines KD), read-out: EC50, COS7 cells (ErbB2&ErbB4 co-expression)
T2 construct: expressed in transfected cells; host or cells: COS 7
Method: as §1

[3] = target: T1, ErbB2&ErbB3 co-expressing COS 7 cells; experiment: Signal transduction: AKT phosphorylation by western blot; assay type: cell-based; conditions: 10 minutes
Method: (§2) Similarly, to study the signal transduction ability of neuregulin and its mutations, ErbB2&ErbB3 or ErbB2&ErbB4 co-expressing COS 7 cells are used. The cells are grown to 80% confluence. In the afternoon, after the cells reach 80% confluence, the media is changed to serum free media. Then after 24 hours, different amounts of neuregulin or neuregulin variants are added into separate wells containing the cells. After 10 minutes, loading buffer is added to lyse the cells. The sample is then harvested and loaded into a separate well of gel for electrophoresis and western blot analysis.

[4] = target: T2, ErbB2&ErbB4 co-expressing COS 7 cells; experiment: as above; assay type: cell-based; conditions: 10 minutes
Method: as §2

B1: L3A: neuregulin fragment (177-237) with alanine substitution for the 3rd amino acid (protein)
chain: SHAVKCAEKEKTFCVNGGECFMVKDLSNPSRYLCKCPNEFTGDRCQNYVMASFYKAEELYQ
receptor binding affinity compared with neuregulin [1]: nearly the same receptor binding affinity
EC50 [1]: 1.15 µM
receptor binding affinity compared with neuregulin [2]: much lower
EC50 [2]: 1.06 µM
AKT phosphorylation compared with neuregulin [3]: less AKT phosphorylation than neuregulin
AKT phosphorylation compared with neuregulin [4]: more AKT phosphorylation than neuregulin

B2: D43A: neuregulin fragment (177-237) with alanine substitution for the 43rd amino acid (protein)
chain: SHLVKCAEKEKTFCVNGGECFMVKDLSNPSRYLCKCPNEFTGARCQNYVMASFYKAEELYQ
receptor binding affinity compared with neuregulin [1]: nearly the same receptor binding affinity
receptor binding affinity compared with neuregulin [2]: much higher
AKT phosphorylation compared with neuregulin [3]: less AKT phosphorylation than neuregulin
AKT phosphorylation compared with neuregulin [4]: more AKT phosphorylation than neuregulin

B3: 8A47A: neuregulin double mutant, simultaneous alanine substitutions for the 8th and 47th amino acids of the neuregulin fragment (protein)
chain: SHLVKCAAKEKTFCVNGGECFMVKDLSNPSRYLCKCPNEFTGDRCQAYVMASFYKAEELYQ
AKT phosphorylation compared with neuregulin [3]: nearly same AKT phosphorylation as neuregulin
AKT phosphorylation compared with neuregulin [4]: much more AKT phosphorylation than neuregulin

B4: NRG: the 177-237 amino acids fragment of neuregulin1β2 (SEQ ID NO:1) (protein, listed as Homo sapiens)
chain: SHLVKCAEKEKTFCVNGGECFMVKDLSNPSRYLCKCPNEFTGDRCQNYVMASFYKAEELYQ
EC50 [1]: 1.41 µM
EC50 [2]: 0.282 µM

Source: patent US10112983B2, “Neuregulin variants and methods of screening and using thereof” (Zensun (Shanghai) Science & Technology, Co., Ltd., priority 2005, dated 2018)
